# Data published in patent publication US20110171285A1, “Design of Fibrinogen and Fibrinogen Derived Products with Reduced Bacterial Binding by Using Modified Sequences of Fibrinogen Chains” (priority 2009, published 2011).
# B1: human 15-mer C-terminal Fg γ-chain peptide (…) (peptide)
# peptide: GQQHHLGGAKQAGDV
# modifications: not checked
# Target: human platelet integrin αIIbβ3 (human), P08514
# Test: competition ELISA: integrin αIIbβ3 coated, 10 nM human Fg added with varying peptide, bound Fg detected with anti-Fg antibodies/HRP
binder,measurement,value
B1,IC50 (read off the curve),10 µM
